For assay [1], the target named is IL-15 receptors on CD8+ T cells and NK cells of cynomolgus monkey whole blood (cynomolgus monkey).
Assay [2] has the same target. This is another data set of the same source.

For the substance IL-15_E54[AzK_PEG30] (ligand), in assay [1], the EC50 of STAT5 signaling (pSTAT5), CD8+ T cells, cynomolgus monkey whole blood was 9.2 ng/ml and the EC50 of STAT5 signaling (pSTAT5), NK cells, cynomolgus monkey whole blood came to 1.8 ng/ml.

In assay [1], IL-15_L26[AzK_PEG30] (ligand) gave an EC50 of STAT5 signaling (pSTAT5), CD8+ T cells, cynomolgus monkey whole blood of 1040 ng/ml and an EC50 of STAT5 signaling (pSTAT5), NK cells, cynomolgus monkey whole blood of 219 ng/ml. In assay [2], the fold change of EC50 for pSTAT5 induction against native IL-15, CD8+ T cells, cynomolgus monkey whole blood is 164 fold and the fold change of EC50 for pSTAT5 induction against native IL-15, NK cells, cynomolgus monkey whole blood turned out to be 115 fold.

In the case of IL-15_N78[AzK_PEG30] (ligand), in assay [1], the EC50 of STAT5 signaling (pSTAT5), CD8+ T cells, cynomolgus monkey whole blood was 15.7 ng/ml and the EC50 of STAT5 signaling (pSTAT5), NK cells, cynomolgus monkey whole blood amounted to 3.9 ng/ml.

In assay [1], “native IL-15 (from UniProt P40933) (ligand)” yielded an EC50 of STAT5 signaling (pSTAT5), CD8+ T cells, cynomolgus monkey whole blood of 6.3 ng/ml and an EC50 of STAT5 signaling (pSTAT5), NK cells, cynomolgus monkey whole blood of 1.9 ng/ml.

For the origin of these results see patent publication US12344648B2.
